This assay deals with NRTN-GFRα2 complex (wild type) (human) (UniProt Q99748). Kind of assay: SPR. In general terms: SPR reads the build-up and loss of mass on a sensor chip optically.

This note sets out measurements from PMC6669014.

UniProt Q99748, sequence (Q99748 97-197, chain 1 of 2): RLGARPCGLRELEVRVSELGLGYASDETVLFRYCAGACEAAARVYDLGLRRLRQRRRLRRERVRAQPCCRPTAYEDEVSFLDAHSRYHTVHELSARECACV
UniProt Q99748, sequence (O00451 22-441, chain 2 of 2, further chain): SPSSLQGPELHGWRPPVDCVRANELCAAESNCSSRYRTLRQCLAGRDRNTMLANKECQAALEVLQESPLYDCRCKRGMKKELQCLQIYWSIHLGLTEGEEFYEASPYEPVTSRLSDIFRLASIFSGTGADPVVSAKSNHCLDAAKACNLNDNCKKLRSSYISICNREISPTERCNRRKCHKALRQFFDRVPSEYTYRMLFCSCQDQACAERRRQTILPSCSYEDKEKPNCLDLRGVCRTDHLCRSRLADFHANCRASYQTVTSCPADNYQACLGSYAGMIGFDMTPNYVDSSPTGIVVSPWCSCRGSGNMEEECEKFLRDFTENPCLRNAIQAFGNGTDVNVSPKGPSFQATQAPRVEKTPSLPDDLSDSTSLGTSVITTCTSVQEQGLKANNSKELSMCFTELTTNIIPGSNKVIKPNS

On to “human RET extracellular domain (RET^ECD, 29 to 635) (from UniProt P07949 29-635) (receptor)”, for which the increase in response over NRTN alone came to 150 RU.
